Source: article PMC5757174, “Biophysical characterization of Atg11, a scaffold protein essential for selective autophagy in yeast” (FEBS Open Bio, 2017)
Where “and” joins values, the source holds several entries; their conditions need not be identical. Equal entries are not always repeated.

B1: full-length S. cerevisiae Atg11 (residues 1-1178) (natural protein, UniProt Q12527 1-1178, looked up)
chain: MADADEYSTAPTQQEITPLQTTATIINAISGECITTNVDFFVSLDKFKQFIARKWKIPPDQLLILLPYGNKLKPSMFKELLINRSFTLNDFYVYDRRLFSLVSKPTPTNLLTSKDSNPMNSPNSNDLTETLEYLIKNSHISQYQGSDTIMIKPMPSPLEDADVDLSRLNYHSVTSLLTTNLGWLSALEIDVHYFKSLIPDIIAHIKRIFDGLTVCSQYLKLYCFDVESLYNSNVQFLNQLVDNGMTSKWEKCFNDTLSKLTALEGDSLQKFINIESLLENEKSVKILNHSINGKLNKIKREIDENASFRDIITVNIDRLRQMFTPNESKFELEDQMAESFEVLVSEMRTRSRNVLDKEEEEFNSQEFLKSMNVMLEKDKKESVKTLFTISQALYSQIGELIDLKKSLQKHAVAILGNIAFTQMEILGIKRLLLNECNKDLELYKKYEVEFAQVEDLPLIYGLYLIEKYRRLSWFQQILSFISNFNQDLELFKQNELRTRNKWVKNFGSIATVFCEDLLSSSDFKRLNEYHSHTSPPNEDEEDENENSIANYRQDLVKVSQAIDNYMTQIKETDVSEPIIDLLSKTLFETKRFHIIYSNFKNNNNNSSNGNSISPEGSIALKSDDVVKGYKTRIKKLESLLHEFQYSDIGHWPQGVLNTHLKPFRGSATSINKKKFLGASVLLEPANISEVNIDSVSQANNHQIQELESNVDDLLHQLQLLKEENNRKSMQISEMGKKISDLEVEKTAYRETLTNLNQELARLTNEEQSHRTEIFTLNASFKKQLNDIISQDNEKIEKLTGDYDDVSKSRERLQMDLDESNKKHEQEVNLLKADIERLGKQIVTSEKSYAETNSSSMEKGEKFETIPLAEDPGRENQISAYTQTLQDRIFDIISTNIFILENIGLLLTFDNNNNIQIRRVKGLKKGTAQSNILDESTQMLDAHDNSLIKSPVFQKLKDEYELIKSVANGSEKDTQQSIFLGNITQLYDNKLYEVAVIRRFKDIETLAKKLTKENKIKRTLLERFQREKVTLRNFQIGDLALFLPTRENVNSVGSMSSSTSSLSSSFSSVDLSTPPPLDAMSIQSSPSVIHSNVINQASISGRDKNKLMRPWAAFTAFEESTRYFLKDEKGLTKGKEWFVGRIVTLEHFVADSPSNNPFRLPKGSVWFQVTAVVVSYQGV
notes: Atg11, Saccharomyces cerevisiae, residues 1-1178 (1178 amino acids, 135 kDa); C terminus carried an HRV3C protease site followed by FLAG and 6x His tags; Residues of the HRV3C site may remain at the C terminus; also called full-length Atg11; source: High Five insect cells, baculovirus expression system, purified (Talon, HiTrap Q, HRV3C cleavage, Superose6 Increase); not shown: FLAG, C-terminal, …
B2: N-terminal region of Atg11 (residues 1-646) (protein)
chain: MADADEYSTAPTQQEITPLQTTATIINAISGECITTNVDFFVSLDKFKQFIARKWKIPPDQLLILLPYGNKLKPSMFKELLINRSFTLNDFYVYDRRLFSLVSKPTPTNLLTSKDSNPMNSPNSNDLTETLEYLIKNSHISQYQGSDTIMIKPMPSPLEDADVDLSRLNYHSVTSLLTTNLGWLSALEIDVHYFKSLIPDIIAHIKRIFDGLTVCSQYLKLYCFDVESLYNSNVQFLNQLVDNGMTSKWEKCFNDTLSKLTALEGDSLQKFINIESLLENEKSVKILNHSINGKLNKIKREIDENASFRDIITVNIDRLRQMFTPNESKFELEDQMAESFEVLVSEMRTRSRNVLDKEEEEFNSQEFLKSMNVMLEKDKKESVKTLFTISQALYSQIGELIDLKKSLQKHAVAILGNIAFTQMEILGIKRLLLNECNKDLELYKKYEVEFAQVEDLPLIYGLYLIEKYRRLSWFQQILSFISNFNQDLELFKQNELRTRNKWVKNFGSIATVFCEDLLSSSDFKRLNEYHSHTSPPNEDEEDENENSIANYRQDLVKVSQAIDNYMTQIKETDVSEPIIDLLSKTLFETKRFHIIYSNFKNNNNNSSNGNSISPEGSIALKSDDVVKGYKTRIKKLESLLHEFQYS
B3: C-terminal region of Atg11 (residues 700-1178) (domain or fragment, S. cerevisiae, UniProt Q12527 700-1178, looked up)
chain: NHQIQELESNVDDLLHQLQLLKEENNRKSMQISEMGKKISDLEVEKTAYRETLTNLNQELARLTNEEQSHRTEIFTLNASFKKQLNDIISQDNEKIEKLTGDYDDVSKSRERLQMDLDESNKKHEQEVNLLKADIERLGKQIVTSEKSYAETNSSSMEKGEKFETIPLAEDPGRENQISAYTQTLQDRIFDIISTNIFILENIGLLLTFDNNNNIQIRRVKGLKKGTAQSNILDESTQMLDAHDNSLIKSPVFQKLKDEYELIKSVANGSEKDTQQSIFLGNITQLYDNKLYEVAVIRRFKDIETLAKKLTKENKIKRTLLERFQREKVTLRNFQIGDLALFLPTRENVNSVGSMSSSTSSLSSSFSSVDLSTPPPLDAMSIQSSPSVIHSNVINQASISGRDKNKLMRPWAAFTAFEESTRYFLKDEKGLTKGKEWFVGRIVTLEHFVADSPSNNPFRLPKGSVWFQVTAVVVSYQGV
notes: Atg11, Saccharomyces cerevisiae, residues 700-1178 (55 kDa); Expressed from a modified pMAL-c2E vector as an MBP fusion with an HRV3C site; MBP was cleaved off; A few residues of the site may remain; also called Atg11_C; source: E. coli BL21(DE3), purified (Amylose, HRV3C cleavage, SP-Sepharose, Superdex 200)

Assays:
[1] = target: the molecule itself; experiment: AUC; sedimentation velocity, 42 000 r.p.m., 20 °C; full-length Atg11 at 0.65 mg/mL in 20 mM Tris pH 8.0, 300 mM NaCl, 1 mM DTT; c(s) by SEDFIT
Q12527 [2] = experiment: SEC; Superose 6 Increase 10/300 GL, 20 mM Tris pH 8.0, 300 mM NaCl, 1 mM DTT; mass estimated from globular standards
Q12527 [3] = experiment: SEC; Superdex 200 Increase 10/300 GL, 20 mM Tris pH 8.0, 150 mM NaCl; mass estimated from globular standards
[4] = target: the molecule itself; experiment: AUC; sedimentation velocity, 36 000 r.p.m., 20 °C; Atg11_N at 0.61 mg/mL and Atg11_C at 0.92 mg/mL in 20 mM Tris pH 8.0, 150 mM NaCl; c(s) by SEDFIT

Protein	stoichiometry N [1] [copies]	copies from the apparent SEC mass (globular standards) (Q12527 [2])	copies from the apparent SEC mass (globular standards) (Q12527 [3])	stoichiometry N [4] [copies]
B1	1.6	8–9 copies of Atg11	–	–
B2	–	–	6 and 7–8 copies of each protein, respectively	–
B3	–	–	6 and 7–8 copies of each protein, respectively	2.1
